Data published in US9777041B2, “Protein nanofibers from self-assembling pentamers” (New York University, priority 2013, dated 2017).

What was measured:
[1] = Confocal microscopy of protein fibers in the presence of curcumin; format: physicochemical; settings: protein:curcumin 1:5, 50 mM phosphate buffer pH 4
Experimental: FIGS. 7a-7c show confocal microscopy of CC, Q54, and COMPcc^S wt, in the presence of curcumin. The mixture of protein to curcumin were all at a ratio of 1:5. […] All different proteins are in 50 mM phosphate buffer, pH 4. Protein and curcumin samples were combined and incubated for 12 hours prior to imaging. […] The width of COMPcc^S wt shown in FIG. 7c was determined to be 12.72 μm. […] Overall, Q54 fibers appeared to be more uniform in width, as well as more robust and consistent in fiber formation.
Confocal microscopy: Samples were imaged using a Leica TCS SP2 AOBS confocal microscope system equipped with argon ion and HeNe lasers. A 63×/1.4 NA oil-immersion objective was used for all of the images. Lab-Tek II chambered #1.5 German coverglass system was used as the imaging slide. Curcumin was excited using the 458 nm line of the argon laser, and images were taken with the detection window set between 465 and 560 nm. The pinhole aperture was set at an Airy value of 1.0, which was equivalent to sampling an ˜500 nm vertical z slice of the fiber, as estimated by the axial resolution, rz,confocal≈1.4λcm n/NA^2 (NA, numerical aperture; n, refractive index; λcm, emission wavelength (525 nm)). Interference contrast images were obtained using the Leica tube optics HC 1×/B apparatus with a focusing Bertrand lens. The 3D reconstructions were constructed using ImageJ 64 1.43 in concert with Amira 5.43, employing the Volren 3D rendering routine.

[2] = Circular dichroism wavelength scans (secondary structure); format: physicochemical; settings: for −θ222 × 10^3 / −θmin × 10^3: 10 μM protein; for random coil / α helices / β sheet: CD, K2D method
Experimental: (§1) Circular dichroism: Circular dichroism (CD) measurements were conducted on a Jasco J-815 CD spectrometer. Wavelength and temperature scans were conducted with 10 μM (6.3×10^−2 mg/mL) protein concentrations. The wavelength spectrum was measured over a range from 190 to 250 nm with a step size of 1 nm Mean residue ellipticity (MRE) was calculated from raw data according to the procedure described in Gunasekar et al. 2009. Secondary structure analysis of α-helical, β-sheet, and random coil content was calculated with the K2D method using DichroWeb software. Temperature scans of each protein were performed over a range of 20-85° C. with a temperature step of 1° C./min at 222 nm. Scans were also performed at of 2° C./min and 5° C./min to evaluate dependence of thermal melt signatures on scan speed. All measurements were made in duplicates of independently prepared proteins and data represents the average. Thermodynamic properties of wt and Q were determined through analysis of thermal melts. A two-state model was used, where assumptions included monophasic behavior and reversible melting behavior. These assumptions were confirmed experimentally by melting (from 20 to 85° C.) and cooling (from 85 to 20° C.) the proteins. Calculation of thermodynamic parameters including Tm, ΔG°, ΔH°, and ΔS° were performed according to the method described by Greenfield.
To assess the secondary structure of the proteins under acidic as well as neutral and basic conditions in solution, CD measurements were performed. […] The presence of residue P28 towards the center of Q may have influenced the secondary structure, showing decreased helical content when compared to wt at pH 4 and 10 (FIG. 16). The negative control, L, was completely unstructured, devoid of helical content at pH 4 (FIG. 11). […] As the pH increased, the helical content of soluble Q protein increased.
Mean residual ellipticities from circular dichroism measurements at pH 4, 8, and 10 for wt, L, and Q. The data presented in Table 5 represents the average and standard deviation of at least two replicates.

[3] = Transmission electron microscopy of protein fibers; format: physicochemical; settings: for fiber formation seen by TEM: pH 4, 50 mM PB
Experimental: Transmission electron microscopy: A JEOL JEM-1400 transmission electron microscope (TEM) was used to study the supramolecular protein structure. […] After 1 minute, the grids were blotted using filter paper and rinsed with 3-4 drops Milli Q water to remove excess salts from the buffer. After blotting with filter paper, the sample was negatively stained by adding 3 μL of 1% filtered uranyl acetate, blotted using filter paper, and dried at room temperature for 10-15 minutes. ImageJ software was used to measure the fibers dimensions.

[4] = ATR-FTIR secondary structure of solid-state protein; format: physicochemical; settings: 10 μM protein in 50 mM PB
Experimental: Attenuated Total Reflectance Fourier Transform Infrared Spectroscopy (ATR-FTIR): ATR-FTIR experiments were performed using Perkin Elmer System 2000 FT-IR with DuraSamplIR II T diamond ATR accessory and equipped with a MCT-A detector. Approximately, 5 μL of peptide solution (10 μM in 50 mM PB, pH 4, 8, and 10) was added on the diamond ATR surface. The spectrum (128 scans) was measured at room temperature over a range of 4000-400 cm^−1 with 0.5 cm^−1 resolution. PeakFit software was used to process the data, which involved a 2nd derivative zero baseline correction of the amide I region between 1700-1600 cm^−1 and deconvolution of peaks with a Gaussian function. All readings represent the average of two trials.
To quantifying the secondary structure of the protein in its solid-state, ATR-FTIR experiments were conducted to evaluate secondary structure of insoluble Q fibers at pH 4, 8, and 10 (Table 8). The frequency measured in the regions of the amide I and amide II absorptions of a protein correlate to the secondary structural motifs within the protein, and were thereby used to assess conformation of the protein in its solid-state (FIGS. 20a-20d). Secondary structure conformation based on ATR-FTIR data for Q in 50 mM PB at pH 4, 8, and 10, and in the presence of curcumin at a 5:1 molar ratio with Q at pH 4 are shown in […]. Percent composition was determined from relative areas of peaks fit to spectra (FIGS. 20a-20d).
Secondary structure conformation based on ATR-FTIR data for 10 μM protein in 50 mM PB before and after templation of AuNPs is provided in Table 10. Percent composition was determined from relative areas of peaks fit to spectra (see spectra FIGS. 37a-37d, FIGS. 38a-38d).

[5] = Curcumin binding fluorescence; settings: in the presence of Zn^2+
Excerpt: FIG. 40. Fluorescence of C and Q or with incorporated trifluoroleucine/TFL (C TFL and Q TFL) in the presence of no metal, Ni (II), or Zn (II) and curcumin. An increase in fluorescence indicates structural stability of the protein as it is able to bind with curcumin, the fluorescent probe in this case.

[6] = Circular dichroism thermal melts at 222 nm, van't Hoff analysis; format: physicochemical; settings: for Tm: 10 μM protein; for ΔG° (free energy of folding): at 25° C.; for ΔS°: ΔS° = ΔH°/Tm
Experimental: as §1
Thermodynamic properties were assessed via thermal melt of the proteins at 222 nm. Prior to calculating thermodynamic constants, assumptions of monophasic behavior and melt reversibility were confirmed experimentally for wt and Q at all pHs by melting and cooling proteins (FIGS. 18a-18d). The van't Hoff equation was applied to thermal melts of the proteins in the range of 20-85° C.

[7] = without any evidence for protofibrils; cited from earlier work

For “L: L44 protein, SEQ ID NO:3, variant of COMPcc; negative control swap protein (MRGSHHHHHHGSIEGRLQDVERLLRQQVKEITFLKNTAPQMLRELQETNAASKL) [reference compound]”, the “fiber formation seen by confocal microscopy” value [1] was “No fibers were seen”, the “−θ222 × 10^3” value ([2]; pH 4) was −0.41 10^3 deg cm^2 dmol^-1 and the “−θmin × 10^3” value ([2]; pH 4) was 5.18 10^3 deg cm^2 dmol^-1. The random coil ([2]; pH 4) was 43%, the α helices ([2]; pH 4) was 9% and the β sheet ([2]; pH 4) was 49%. The “−θ222 × 10^3” value ([2]; pH 8) was 3.54 10^3 deg cm^2 dmol^-1, the “−θmin × 10^3” value ([2]; pH 8) was 4.14 10^3 deg cm^2 dmol^-1 and the random coil ([2]; pH 8) was 49%. For the same molecule, the α helices ([2]; pH 8) was 13%, the β sheet ([2]; pH 8) was 38% and the “−θ222 × 10^3” value ([2]; pH 10) was 3.40 10^3 deg cm^2 dmol^-1. For the same molecule, the “−θmin × 10^3” value ([2]; pH 10) was 3.89 10^3 deg cm^2 dmol^-1, the random coil ([2]; pH 10) was 52% and the α helices ([2]; pH 10) was 16%. The β sheet ([2]; pH 10) was 32% and the “fiber formation seen by TEM” value [3] was “not been observed to form fibers”.

With “C: CC protein, SEQ ID NO:1, variant of COMPcc; coiled-coil forming homopentamers (MRGSHHHHHHGSIEGRAPQMLRELQETNAALQDVRELLRQQVKEITFLKNTSKL)” the “Random, percent composition” value ([4]; +AuNP (after templation)) was 16%, the “α helix, percent composition” value ([4]; +AuNP (after templation)) was 30% and the “β sheet, percent composition” value ([4]; +AuNP (after templation)) was 54%. For the same molecule, the “Random, percent composition” value ([4]; before templation of AuNPs) was 28%, the “α helix, percent composition” value ([4]; before templation of AuNPs) was 38% and the “β sheet, percent composition” value ([4]; before templation of AuNPs) was 33%. The “average width of protein fibers” value ([1]; 20 mM protein, 100 mM curcumin, 12 hours) was 19.24±12 μm, the “binding to small molecule (curcumin fluorescence)” value [5] was “substantially increase the binding to small molecule” and the “fiber formation seen by TEM” value [3] was “not been observed to form fibers”.

In the case of “Qx: variant of Q54 void of the 6×his tag, SEQ ID NO:6 (VKEITFLKNTAPQMLRELQETNAALQDVRELLRQQSKL)”, the “Random, percent composition” value ([4]; +AuNP (after templation)) is reported as 20%, the “α helix, percent composition” value ([4]; +AuNP (after templation)) is reported as 48% and the “β sheet, percent composition” value ([4]; +AuNP (after templation)) is reported as 32%. The “Random, percent composition” value ([4]; before templation of AuNPs) was 29%, the “α helix, percent composition” value ([4]; before templation of AuNPs) was 45% and the “β sheet, percent composition” value ([4]; before templation of AuNPs) was 26%.

B1: wt: coiled-coil region of cartilage oligomeric matrix protein with the two cysteines replaced by serines, SEQ ID NO:4 (protein)
chain: MRGSHHHHHHGSGDLAPQMLRELQETNAALQDVRELLRQQVKEITFLKNTVMESDASGKLN
modifications: human
With B1 the width of fibers ([1]; 12 hours) was 12.72 μm, the “ΔH° (van't Hoff enthalpy)” value ([6]; pH 4) was -29.9 kcal/mol and the Tm ([6]; pH 4) was 48.2 °C. For the same molecule, the “ΔG° (free energy of folding)” value ([6]; pH 4) was -2.2 kcal/mol, the ΔS° ([6]; pH 4) was -93 cal/(mol·K) and the “ΔH° (van't Hoff enthalpy)” value ([6]; pH 8) was -31.0 kcal/mol. For the same molecule, the Tm ([6]; pH 8) was 48.8 °C, the “ΔG° (free energy of folding)” value ([6]; pH 8) was -2.3 kcal/mol and the ΔS° ([6]; pH 8) was -96.6 cal/(mol·K). For the same molecule, the “ΔH° (van't Hoff enthalpy)” value ([6]; pH 10) was -29.8 kcal/mol, the Tm ([6]; pH 10) was 46.3 °C and the “ΔG° (free energy of folding)” value ([6]; pH 10) was -2.0 kcal/mol. For the same molecule, the ΔS° ([6]; pH 10) was -93.3 cal/(mol·K), the “fiber diameters (known)” value [7] was 10-15 nm and the “−θ222 × 10^3” value ([2]; pH 4) was 13.18 10^3 deg cm^2 dmol^-1. The “−θmin × 10^3” value ([2]; pH 4) was 13.02 10^3 deg cm^2 dmol^-1, the random coil ([2]; pH 4) was 32% and the α helices ([2]; pH 4) was 50%. The β sheet ([2]; pH 4) was 18%, the “−θ222 × 10^3” value ([2]; pH 8) was 18.28 10^3 deg cm^2 dmol^-1 and the “−θmin × 10^3” value ([2]; pH 8) was 17.61 10^3 deg cm^2 dmol^-1. It also gave a random coil ([2]; pH 8) of 30%, a α helices ([2]; pH 8) of 64% and a β sheet ([2]; pH 8) of 6%. The “−θ222 × 10^3” value ([2]; pH 10) was 17.84 10^3 deg cm^2 dmol^-1, the “−θmin × 10^3” value ([2]; pH 10) was 17.13 10^3 deg cm^2 dmol^-1 and the random coil ([2]; pH 10) was 31%. It also gave a α helices ([2]; pH 10) of 63%, a β sheet ([2]; pH 10) of 6% and a fiber diameters ([3]; pH 8, 10 mM PB) of 17±3 nm.
